The target of assay [1] is T1, human FcγRIIb (human, UniProt P31994 43-217, limits assumed).
T1 construct: also called hFcgRIIb; FcγIIB
T1 sequence: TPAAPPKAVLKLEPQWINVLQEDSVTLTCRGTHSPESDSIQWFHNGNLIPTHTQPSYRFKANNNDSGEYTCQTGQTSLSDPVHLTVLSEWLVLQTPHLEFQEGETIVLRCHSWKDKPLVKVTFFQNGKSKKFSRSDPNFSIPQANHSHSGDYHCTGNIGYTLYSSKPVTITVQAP
In words: SPR (Biacore), antibody captured on Protein L, human FcgR as analyte, pH 7.4, 25 C; amount normalised to captured antibody. In general terms: Surface plasmon resonance follows binding to a sensor surface in real time, without labels.
Procedure: (§1) Binding activity between the antibodies and human FcγRIa, FcγRIIa(H), FcγRIIa(R), FcγRIIb and FcγRIIIa(F) (hereinafter referred to as human FcγRs) was evaluated using the Biacore T100 or T200 (GE Healthcare). The antibodies being tested were captured by Protein L (ACTIGEN) that was immobilized in suitable amounts on the CM4 Sensor Chip (GE Healthcare) by amine coupling. Next, the diluted human FcγRs and a running buffer used as a blank were injected to allow interaction with the antibodies captured on the sensor chip. A buffer consisting of 20 mmol/L ACES, 150 mmol/L NaCl and 0.05% (w/v) Tween 20 (pH 7.4) was used for the running buffer, and this buffer was also used to dilute the human FcγRs. 10 mmol/L glycine-HCl (pH 1.5) was used to regenerate the sensor chip. All measurements were carried out at 25° C.
(§2) Binding activity to human FcγRs can be represented by the relative binding activity to human FcγRs. Antibody was captured by Protein L, and the amount of change in a sensorgram before and after the antibody was captured was defined as X1. Next, human FcγRs were allowed to interact with the antibody, and the value obtained by subtracting binding activity of human FcγRs represented as the amount of change in a sensorgram before and after allowing the running buffer to interact with antibody captured by Protein L (ΔA2) from the value obtained by multiplying by 1500 the value obtained by dividing the binding activity of human FcγRs represented as the amount of change in a sensorgram before and after that interaction (ΔA1) by the captured amount (X) of each antibody, was divided by the captured amount of each antibody (X) followed by multiplying by 1500 to obtain the binding activity of the human FcγRs (Y) (Equation 2).

Assay [2] deals with T2, human FcγRIIIa(F) (human, UniProt P08637 17-208, limits assumed).
T2 construct: also called hFcgRIIIa(F); allotype F158
T2 sequence (P08637 other isoform, or with tags, fused parts or gaps limits assumed): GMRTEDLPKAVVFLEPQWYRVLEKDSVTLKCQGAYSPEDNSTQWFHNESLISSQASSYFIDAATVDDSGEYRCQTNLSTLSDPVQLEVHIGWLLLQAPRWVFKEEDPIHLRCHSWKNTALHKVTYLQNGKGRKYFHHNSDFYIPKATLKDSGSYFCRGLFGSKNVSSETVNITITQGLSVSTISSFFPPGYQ
Described as above.
Procedure: as §1, §2

Assay [3] deals with T3, human FcγRIIb (human, UniProt P31994 43-217, limits assumed).
T3 construct: also called FcγIIB; hFcgRIIb
T3 sequence: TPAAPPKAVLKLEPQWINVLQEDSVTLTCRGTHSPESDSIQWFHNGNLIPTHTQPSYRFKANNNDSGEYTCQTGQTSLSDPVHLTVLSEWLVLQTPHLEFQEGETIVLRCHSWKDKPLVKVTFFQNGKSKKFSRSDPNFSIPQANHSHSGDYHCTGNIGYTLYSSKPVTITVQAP
In words: ratio of this variant's SPR KD for FcγRIIaR to its KD for FcγRIIb.
Source text: (§3) Furthermore, KD(IIaR)/KD(IIb) and KD(IIaH)/KD(IIb) in the table respectively represent the value obtained by dividing the KD value of each variant for FcγRIIaR by the KD value of each variant for FcγRIIb, and the value obtained by dividing the KD value of each variant for FcγRIIaH by the KD value of each variant for FcγRIIb.

The target of assay [4] is T3, human FcγRIIb. In words: ratio of this variant's SPR KD for FcγRIIaH to its KD for FcγRIIb.
Source text: as §3
The target in assay [5] is T4, human FcγRIIa type R (human, UniProt P12318 36-217).
T4 construct: also called FcγRIIaR; FcγRIIa(R)
T4 chain: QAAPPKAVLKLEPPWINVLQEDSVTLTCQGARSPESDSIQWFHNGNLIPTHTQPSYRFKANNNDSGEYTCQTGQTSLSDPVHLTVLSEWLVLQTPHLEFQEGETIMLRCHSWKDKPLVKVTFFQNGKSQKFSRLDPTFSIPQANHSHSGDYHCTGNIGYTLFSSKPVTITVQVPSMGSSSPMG
The assay is described as follows: SPR KD of this variant's stronger FcγRIIa allotype binding divided by that of parent IL6R-B3/IL6R-L.
Source text: as §3

The target in assay [6] is T3, human FcγRIIb. In words: SPR KD for FcγRIIb of parent IL6R-B3/IL6R-L divided by that of this variant.
Source text: as §3
Assay [7] concerns the target T4, human FcγRIIa type R. In words: SPR (Biacore), captured antibody, FcγR as analyte, 25 C.
Source text: as §3
Assay [8] concerns the target T5, human FcRn (human).
T5 construct: Soluble human FcRn complexed with β2-microglobulin; also called hFcRn; soluble human FcRn complexed with β2-microglobulin
The assay is described as follows: SPR (Biacore), antibody captured by Protein L, human FcRn as analyte, pH 7.0.
Procedure: A kinetic analysis of binding between human FcRn and the aforementioned antibodies was carried out using the Biacore T100 or T200 (GE Healthcare). The antibodies being tested were captured on the CM4 Sensor Chip (GE Healthcare) on which a suitable amount of Protein L (ACTIGEN) was suitably immobilized by amine coupling. Next, diluted human FcRn and a running buffer used as a blank were injected to allow the human FcRn to interact with the antibody captured on the sensor chip. A buffer consisting of 50 mmol/L sodium phosphate, 150 mmol/L NaCl and 0.05% (w/v) Tween 20 (pH 7.0 or pH 7.4) was used for the running buffer, and each buffer was also used to dilute the human FcRn. 10 mmol/L glycine-HCl (pH 1.5) was used to regenerate the sensor chip. All measurements of binding were carried out at 25° C. The KD(M) of each antibody to human FcRn was calculated based on kinetics parameters, i.e., the association rate constant ka (1/Ms) and the dissociation rate constant kd (1/s) calculated from a sensorgram obtained by the measurement. The Biacore T100 or T200 Evaluation Software (GE Healthcare) was used to calculate each parameter.

The results in this text go back to patent publication US20140105889A1 (published 2014).

T5 sequence (chain, as listed by the source limits assumed, chain 1 of 2): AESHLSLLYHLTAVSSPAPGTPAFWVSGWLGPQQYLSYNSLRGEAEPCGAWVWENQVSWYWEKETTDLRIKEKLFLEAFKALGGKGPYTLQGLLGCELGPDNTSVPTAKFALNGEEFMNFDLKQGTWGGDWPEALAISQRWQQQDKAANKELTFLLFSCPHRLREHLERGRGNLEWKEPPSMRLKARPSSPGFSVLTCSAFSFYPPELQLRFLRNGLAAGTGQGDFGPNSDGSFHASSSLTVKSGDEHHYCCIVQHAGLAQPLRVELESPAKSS
T5 sequence (P61769 21-119 limits assumed, chain 2 of 2): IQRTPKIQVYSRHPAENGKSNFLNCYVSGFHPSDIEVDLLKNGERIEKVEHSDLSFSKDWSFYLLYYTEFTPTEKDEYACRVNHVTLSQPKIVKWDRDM

B1: antibody containing VH3-IgG1-F1324 for the heavy chain and L(WT)-CK for the light chain (antibody)
heavy: QVQLQESGPGLVKPSETLSLTCAVSGHSISHDHAWSWVRQPPGEGLEWIGFISYSGITNYNPSLQGRVTISRDNSKNTLYLQMNSLRAEDTAVYYCARSLARTTAMDYWGEGTLVTVSSASTKGPSVFPLAPSSKSTSGGTAALGCLVKDYFPEPVTVSWNSGALTSGVHTFPAVLQSSGLYSLSSVVTVPSSSLGTQTYICNVNHKPSNTKVDKKVEPKSCDKTHTCPPCPAPEAAGGPSVFLFPPKPKDTLYISRTPEVTCVVVDVSHEDPEVKFNWYVDGVEVHNAKTKPREEQYNSTYRVVSVLTVLHQDWLNGKEYKCKVSNKALPAPIEKTISKAKGQPREPQVYTLPPSRDELTKNQVSLTCLVKGFYPSDIAVEWESNGQPENNYKTTPPVLDSDGSFFLYSKLTVDKSRWQQGNVFSCSVMHEALHYHVTQKSLSLSP
light: not shown
Turning to B1, the “BINDING AMOUNT (RU)” value worked out at 3.85 RU in assay [1] and 5.83 RU in assay [2].

B2: IL6R-BP089/IL6R-L (antibody, human IgG1)
heavy: QVQLQESGPGLVKPSETLSLTCAVSGHSISHDHAWSWVRQPPGEGLEWIGFISYSGITNYNPSLQGRVTISRDNSKNTLYLQMNSLRAEDTAVYYCARSLARTTAMDYWGEGTLVTVSSASTKGPSVFPLAPSSKSTSGGTAALGCLVKDYFPEPVTVSWNSGALTSGVHTFPAVLQSSGLYSLSSVVTVPSSSLGTQTYICNVNHKPSNTKVDKKVEPKSCDKTHTCPPCPAPEYLGGDSVFLFPPKPKDTLMISRTPEVTCVVVDVSHEDPEVKFNWYVDGVEVHNAKTKPREEQYNSTYRVVSVLTVLHQDWLNGKEYKCKVSNAALPKPIEKTISKAKGQPREPQVYTLPPSRDELTKNQVSLTCLVKGFYPSDIAVEWESNGQPENNYKTTPPVLDSDGSFFLYSKLTVDKSRWQQGNVFSCSVMHEALHNHYTQESLSLSP
light: DIQMTQSPSSLSASVGDRVTITCRASQDISSYLNWYQQKPGKAPKLLIYYTSRLHSGVPSRFSGSGSGTDFTFTISSLQPEDIATYYCQQGNTLPYTFGQGTKVEIK
notes: copies: 2 + 2
Regarding B2, the “KD (IIaR)/KD (IIb)” value in assay [3] was found to be 16.6. In addition, the “KD (IIaH)/KD (IIb)” value in assay [4] came to 51.9. In addition, the “KD value for the stronger of the FcγRIIaR- and FcγRIIaH-binding activities of the variant/that of the parent polypeptide” value in assay [5] turned out to be 6.3.

B3: IL6R-BP144/IL6R-L (antibody, human IgG1)
heavy: QVQLQESGPGLVKPSETLSLTCAVSGHSISHDHAWSWVRQPPGEGLEWIGFISYSGITNYNPSLQGRVTISRDNSKNTLYLQMNSLRAEDTAVYYCARSLARTTAMDYWGEGTLVTVSSASTKGPSVFPLAPSSKSTSGGTAALGCLVKDYFPEPVTVSWNSGALTSGVHTFPAVLQSSGLYSLSSVVTVPSSSLGTQTYICNVNHKPSNTKVDKKVEPKSCDKTHTCPPCPAPELLGDDSVFLFPPKPKDTLMISRTPEVTCVVVDVSHEDPEVKFNWYVDGVEVHNAKTKPREEQYNSTYRVVSVLTVLHQDWLNGKEYKCKVSNAALPAPIEKTISKAKGQPREPQVYTLPPSRDELTKNQVSLTCLVKGFYPSDIAVEWESNGQPENNYKTTPPVLDSDGSFFLYSKLTVDKSRWQQGNVFSCSVMHEALHNHYTQESLSLSP
light: DIQMTQSPSSLSASVGDRVTITCRASQDISSYLNWYQQKPGKAPKLLIYYTSRLHSGVPSRFSGSGSGTDFTFTISSLQPEDIATYYCQQGNTLPYTFGQGTKVEIK
notes: copies: 2 + 2
Broadly, the Kd is the free concentration of one partner at which half of the binding sites on the other are occupied at equilibrium, for simple one-to-one binding. A high value points to lower affinity. Take B3: the “KD(IIb) of the parent polypeptide/KD(IIb) of the altered polypeptide” value in assay [6] worked out at 5.9. In assay [7], this molecule yielded an equilibrium dissociation constant (Kd) of 2900 nM. Moreover, the “KD (IIaR)/KD (IIb)” value in assay [3] came out at 8.7. The “KD (IIaH)/KD (IIb)” value in assay [4] was 45.8. In assay [5], the “KD value for the stronger of the FcγRIIaR- and FcγRIIaH-binding activities of the variant/that of the parent polypeptide” value turned out to be 6.9.

B4: IgG1-F1369 (antibody, name in EU numbering)
heavy: QVQLQESGPGLVKPSETLSLTCAVSGHSISHDHAWSWVRQPPGEGLEWIGFISYSGITNYNPSLQGRVTISRDNSKNTLYLQMNSLRAEDTAVYYCARSLARTTAMDYWGEGTLVTVSSASTKGPSVFPLAPSSKSTSGGTAALGCLVKDYFPEPVTVSWNSGALTSGVHTFPAVLQSSGLYSLSSVVTVPSSSLGTQTYICNVNHKPSNTKVDKKVEPKSCDKTHTCPPCPAPELRGGPKVFLFPPKPKDTLYITREPEVTCVVVDVSHEDPEVKFNWYVDGVEVHNAKTKPREEQYNSTYRVVSVLTVLHQDWLNGKEYKCKVSNKALPAPIEKTISKAKGQPREPQVYTLPPSRDELTKNQVSLTCLVKGFYPSDIAVEWESNGQPENNYKTTPPVLDSDGSFFLYSKLTVDKSRWQQGNVFSCSVMHEALHYHFTRKELSLSP
light: not shown
notes: light chain L(WT)-CK; copies: 2 + 2
On to B4, for which the affinity in assay [8], expressed as Kd, was 76 nM.
